According to patent publication US20140294898A1 (published 2014):

B1: Compound No. 80 (peptide)
peptide: FFXGDAFYGWYLCG
HELM: PEPTIDE1{[O=C(C[*:3])[*:2]].F.[meF].[CCCC[C@@H](C(=O)[*:2])N(C)[*:1]].[Sar].D.A.[meF].Y.[Sar].W.Y.L.C.G.[am]}$PEPTIDE1,PEPTIDE1,1:R3-14:R3$$$V2.0
SMILES: CCCC[C@H]1C(=O)N(C)CC(=O)N[C@@H](CC(=O)O)C(=O)N[C@@H](C)C(=O)N(C)[C@@H](Cc2ccccc2)C(=O)N[C@@H](Cc2ccc(O)cc2)C(=O)N(C)CC(=O)N[C@@H](Cc2c[nH]c3ccccc23)C(=O)N[C@@H](Cc2ccc(O)cc2)C(=O)N[C@@H](CC(C)C)C(=O)N[C@H](C(=O)NCC(N)=O)CSCC(=O)N[C@@H](Cc2ccccc2)C(=O)N(C)[C@@H](Cc2ccccc2)C(=O)N1C
notes: macrocyclic peptide cyclized via the ClAc moiety with the downstream cysteine; variant of Compound No. 71 (Ala at 6)
B2: Compound No. 83 (peptide)
peptide: FFXGDVFAGWYLCG
HELM: PEPTIDE1{[O=C(C[*:3])[*:2]].F.[meF].[CCCC[C@@H](C(=O)[*:2])N(C)[*:1]].[Sar].D.V.[meF].A.[Sar].W.Y.L.C.G.[am]}$PEPTIDE1,PEPTIDE1,1:R3-14:R3$$$V2.0
SMILES: CCCC[C@H]1C(=O)N(C)CC(=O)N[C@@H](CC(=O)O)C(=O)N[C@@H](C(C)C)C(=O)N(C)[C@@H](Cc2ccccc2)C(=O)N[C@@H](C)C(=O)N(C)CC(=O)N[C@@H](Cc2c[nH]c3ccccc23)C(=O)N[C@@H](Cc2ccc(O)cc2)C(=O)N[C@@H](CC(C)C)C(=O)N[C@H](C(=O)NCC(N)=O)CSCC(=O)N[C@@H](Cc2ccccc2)C(=O)N(C)[C@@H](Cc2ccccc2)C(=O)N1C
notes: macrocyclic peptide cyclized via the ClAc moiety with the downstream cysteine; variant of Compound No. 71 (Ala at 8)
B3: Compound No. 84 (peptide)
peptide: FFXGDVFYAWYLCG
HELM: PEPTIDE1{[O=C(C[*:3])[*:2]].F.[meF].[CCCC[C@@H](C(=O)[*:2])N(C)[*:1]].[Sar].D.V.[meF].Y.[meA].W.Y.L.C.G.[am]}$PEPTIDE1,PEPTIDE1,1:R3-14:R3$$$V2.0
SMILES: CCCC[C@H]1C(=O)N(C)CC(=O)N[C@@H](CC(=O)O)C(=O)N[C@@H](C(C)C)C(=O)N(C)[C@@H](Cc2ccccc2)C(=O)N[C@@H](Cc2ccc(O)cc2)C(=O)N(C)[C@@H](C)C(=O)N[C@@H](Cc2c[nH]c3ccccc23)C(=O)N[C@@H](Cc2ccc(O)cc2)C(=O)N[C@@H](CC(C)C)C(=O)N[C@H](C(=O)NCC(N)=O)CSCC(=O)N[C@@H](Cc2ccccc2)C(=O)N(C)[C@@H](Cc2ccccc2)C(=O)N1C
notes: macrocyclic peptide cyclized via the ClAc moiety with the downstream cysteine; variant of Compound No. 71 (mAla at 9)
B4: Compound No. 86 (peptide)
peptide: FFXGDVFYGWALCG
HELM: PEPTIDE1{[O=C(C[*:3])[*:2]].F.[meF].[CCCC[C@@H](C(=O)[*:2])N(C)[*:1]].[Sar].D.V.[meF].Y.[Sar].W.A.L.C.G.[am]}$PEPTIDE1,PEPTIDE1,1:R3-14:R3$$$V2.0
SMILES: CCCC[C@H]1C(=O)N(C)CC(=O)N[C@@H](CC(=O)O)C(=O)N[C@@H](C(C)C)C(=O)N(C)[C@@H](Cc2ccccc2)C(=O)N[C@@H](Cc2ccc(O)cc2)C(=O)N(C)CC(=O)N[C@@H](Cc2c[nH]c3ccccc23)C(=O)N[C@@H](C)C(=O)N[C@@H](CC(C)C)C(=O)N[C@H](C(=O)NCC(N)=O)CSCC(=O)N[C@@H](Cc2ccccc2)C(=O)N(C)[C@@H](Cc2ccccc2)C(=O)N1C
notes: macrocyclic peptide cyclized via the ClAc moiety with the downstream cysteine; variant of Compound No. 71 (Ala at 11)
B5: Compound No. 87 (peptide)
peptide: FFXGDVFYGWYACG
HELM: PEPTIDE1{[O=C(C[*:3])[*:2]].F.[meF].[CCCC[C@@H](C(=O)[*:2])N(C)[*:1]].[Sar].D.V.[meF].Y.[Sar].W.Y.A.C.G.[am]}$PEPTIDE1,PEPTIDE1,1:R3-14:R3$$$V2.0
SMILES: CCCC[C@H]1C(=O)N(C)CC(=O)N[C@@H](CC(=O)O)C(=O)N[C@@H](C(C)C)C(=O)N(C)[C@@H](Cc2ccccc2)C(=O)N[C@@H](Cc2ccc(O)cc2)C(=O)N(C)CC(=O)N[C@@H](Cc2c[nH]c3ccccc23)C(=O)N[C@@H](Cc2ccc(O)cc2)C(=O)N[C@@H](C)C(=O)N[C@H](C(=O)NCC(N)=O)CSCC(=O)N[C@@H](Cc2ccccc2)C(=O)N(C)[C@@H](Cc2ccccc2)C(=O)N1C
notes: macrocyclic peptide cyclized via the ClAc moiety with the downstream cysteine; variant of Compound No. 71 (Ala at 12)
B6: Compound No. 85 (peptide)
peptide: FFXGDVFYGWYLCG
HELM: PEPTIDE1{[O=C(C[*:3])[*:2]].F.[meF].[CCCC[C@@H](C(=O)[*:2])N(C)[*:1]].[Sar].D.V.[meF].Y.G.W.Y.L.C.G.[am]}$PEPTIDE1,PEPTIDE1,1:R3-14:R3$$$V2.0
SMILES: CCCC[C@H]1C(=O)N(C)CC(=O)N[C@@H](CC(=O)O)C(=O)N[C@@H](C(C)C)C(=O)N(C)[C@@H](Cc2ccccc2)C(=O)N[C@@H](Cc2ccc(O)cc2)C(=O)NCC(=O)N[C@@H](Cc2c[nH]c3ccccc23)C(=O)N[C@@H](Cc2ccc(O)cc2)C(=O)N[C@@H](CC(C)C)C(=O)N[C@H](C(=O)NCC(N)=O)CSCC(=O)N[C@@H](Cc2ccccc2)C(=O)N(C)[C@@H](Cc2ccccc2)C(=O)N1C
notes: macrocyclic peptide cyclized via the ClAc moiety with the downstream cysteine; variant of Compound No. 71 (Gly instead of Sar at 9)
B7: Compound No. 71 (peptide)
peptide: FFXGDVFYGWYLCG
HELM: PEPTIDE1{[O=C(C[*:3])[*:2]].F.[meF].[CCCC[C@@H](C(=O)[*:2])N(C)[*:1]].[Sar].D.V.[meF].Y.[Sar].W.Y.L.C.G.[am]}$PEPTIDE1,PEPTIDE1,1:R3-14:R3$$$V2.0
SMILES: CCCC[C@H]1C(=O)N(C)CC(=O)N[C@@H](CC(=O)O)C(=O)N[C@@H](C(C)C)C(=O)N(C)[C@@H](Cc2ccccc2)C(=O)N[C@@H](Cc2ccc(O)cc2)C(=O)N(C)CC(=O)N[C@@H](Cc2c[nH]c3ccccc23)C(=O)N[C@@H](Cc2ccc(O)cc2)C(=O)N[C@@H](CC(C)C)C(=O)N[C@H](C(=O)NCC(N)=O)CSCC(=O)N[C@@H](Cc2ccccc2)C(=O)N(C)[C@@H](Cc2ccccc2)C(=O)N1C
notes: Macrocyclic peptide of the Formula II series; X = norleucine backbone (N-methylated)
B8: Compound No. 80 (peptide)
peptide: FFXGDAFYGWYLCG
HELM: PEPTIDE1{[O=C(C[*:3])[*:2]].F.[meF].[CCCC[C@@H](C(=O)[*:2])N(C)[*:1]].[Sar].D.A.[meF].Y.[Sar].W.Y.L.C.G.[am]}$PEPTIDE1,PEPTIDE1,1:R3-14:R3$$$V2.0
SMILES: CCCC[C@H]1C(=O)N(C)CC(=O)N[C@@H](CC(=O)O)C(=O)N[C@@H](C)C(=O)N(C)[C@@H](Cc2ccccc2)C(=O)N[C@@H](Cc2ccc(O)cc2)C(=O)N(C)CC(=O)N[C@@H](Cc2c[nH]c3ccccc23)C(=O)N[C@@H](Cc2ccc(O)cc2)C(=O)N[C@@H](CC(C)C)C(=O)N[C@H](C(=O)NCC(N)=O)CSCC(=O)N[C@@H](Cc2ccccc2)C(=O)N(C)[C@@H](Cc2ccccc2)C(=O)N1C
notes: Variant of Compound No. 71: Val6 to Ala
B9: Compound No. 83 (peptide)
peptide: FFXGDVFAGWYLCG
HELM: PEPTIDE1{[O=C(C[*:3])[*:2]].F.[meF].[CCCC[C@@H](C(=O)[*:2])N(C)[*:1]].[Sar].D.V.[meF].A.[Sar].W.Y.L.C.G.[am]}$PEPTIDE1,PEPTIDE1,1:R3-14:R3$$$V2.0
SMILES: CCCC[C@H]1C(=O)N(C)CC(=O)N[C@@H](CC(=O)O)C(=O)N[C@@H](C(C)C)C(=O)N(C)[C@@H](Cc2ccccc2)C(=O)N[C@@H](C)C(=O)N(C)CC(=O)N[C@@H](Cc2c[nH]c3ccccc23)C(=O)N[C@@H](Cc2ccc(O)cc2)C(=O)N[C@@H](CC(C)C)C(=O)N[C@H](C(=O)NCC(N)=O)CSCC(=O)N[C@@H](Cc2ccccc2)C(=O)N(C)[C@@H](Cc2ccccc2)C(=O)N1C
notes: Variant of Compound No. 71: Tyr8 to Ala
B10: Compound No. 75 (peptide)
peptide: FFAGDVFYGWYLCG
HELM: PEPTIDE1{[O=C(C[*:3])[*:2]].F.[meF].[meA].[Sar].D.V.[meF].Y.[Sar].W.Y.L.C.G.[am]}$PEPTIDE1,PEPTIDE1,1:R3-14:R3$$$V2.0
SMILES: CC(C)C[C@@H]1NC(=O)[C@H](Cc2ccc(O)cc2)NC(=O)[C@H](Cc2c[nH]c3ccccc23)NC(=O)CN(C)C(=O)[C@H](Cc2ccc(O)cc2)NC(=O)[C@H](Cc2ccccc2)N(C)C(=O)[C@H](C(C)C)NC(=O)[C@H](CC(=O)O)NC(=O)CN(C)C(=O)[C@H](C)N(C)C(=O)[C@H](Cc2ccccc2)N(C)C(=O)[C@H](Cc2ccccc2)NC(=O)CSC[C@@H](C(=O)NCC(N)=O)NC1=O
notes: Variant of Compound No. 71: mNle3 to mAla
B11: Compound No. 82 (peptide)
peptide: FFXGDVFYGWYLCG
HELM: PEPTIDE1{[O=C(C[*:3])[*:2]].F.[meF].[CCCC[C@@H](C(=O)[*:2])N(C)[*:1]].[Sar].D.V.F.Y.[Sar].W.Y.L.C.G.[am]}$PEPTIDE1,PEPTIDE1,1:R3-14:R3$$$V2.0
SMILES: CCCC[C@H]1C(=O)N(C)CC(=O)N[C@@H](CC(=O)O)C(=O)N[C@@H](C(C)C)C(=O)N[C@@H](Cc2ccccc2)C(=O)N[C@@H](Cc2ccc(O)cc2)C(=O)N(C)CC(=O)N[C@@H](Cc2c[nH]c3ccccc23)C(=O)N[C@@H](Cc2ccc(O)cc2)C(=O)N[C@@H](CC(C)C)C(=O)N[C@H](C(=O)NCC(N)=O)CSCC(=O)N[C@@H](Cc2ccccc2)C(=O)N(C)[C@@H](Cc2ccccc2)C(=O)N1C
notes: Variant of Compound No. 71: mPhe7 to Phe (N-methyl removed)

Assays:
hPDL1(19-239)-TVMV-His = molecular target: T1, hPDL1(19-239)-TVMV-His (human, UniProt Q9NZQ7 19-239); assay: HTRF competition, PD-1-Ig (20 nM) binding to human PD-L1-His (10 nM)
T1 construct: The construct name says 19-239, the running text says amino acids 18-239; Expressed in HEK293T cells; also called PD-L1-His; PD-L1-TVMV-His
T1 sequence (Q9NZQ7 other isoform, or with tags, fused parts or gaps limits assumed): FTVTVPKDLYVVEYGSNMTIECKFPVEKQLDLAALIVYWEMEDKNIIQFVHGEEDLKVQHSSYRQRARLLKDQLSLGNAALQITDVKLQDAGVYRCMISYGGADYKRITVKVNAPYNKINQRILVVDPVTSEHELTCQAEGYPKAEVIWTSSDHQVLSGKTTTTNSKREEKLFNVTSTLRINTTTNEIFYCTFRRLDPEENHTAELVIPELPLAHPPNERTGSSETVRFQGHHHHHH
Experimental: All binding studies were performed in an HTRF assay buffer consisting of dPBS supplemented with 0.1% (w/v) bovine serum albumin and 0.05% (v/v) Tween-20. […] PD-L1 fusion proteins from either human, cynomologous macaques, or mouse were used. HTRF detection was achieved using europium crypate-labeled anti-Ig monoclonal antibody (1 nM final) and allophycocyanin (APC) labeled anti-His monoclonal antibody (20 nM final). Antibodies were diluted in HTRF detection buffer and 5 μl was dispensed on top of binding reaction. The reaction was allowed to equilibrate for 30 minutes and signal (665 nm/620 nm ratio) was obtained using an EnVision fluorometer. […]
HTRF experiments were performed essentially as outlined supra. Variant macrocyclic peptides were created as outlined herein.

human PD-L1 = molecular target: T2, human PD-L1 (human, UniProt Q9NZQ7 19-239, limits assumed); assay: cell binding assay, inhibition of human PD-L1/PD-1 binding (cell format not given)
T2 construct: also called Hu PD-L1; hPD-L1
T2 sequence (Q9NZQ7 19-239 limits assumed): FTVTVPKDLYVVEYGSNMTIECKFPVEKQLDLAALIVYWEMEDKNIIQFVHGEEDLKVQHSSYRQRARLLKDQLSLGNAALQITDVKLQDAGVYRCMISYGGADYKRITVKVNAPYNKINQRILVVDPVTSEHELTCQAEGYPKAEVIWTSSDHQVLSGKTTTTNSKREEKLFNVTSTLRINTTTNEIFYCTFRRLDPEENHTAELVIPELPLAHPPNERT

Row | Binder | IC50 (hPDL1(19-239)-TVMV-His) [nM] | IC50 (human PD-L1) [nM]
1 | B1 | 264 | –
2 | B2 | 35 | –
3 | B3 | 42 | –
4 | B4 | 820 | –
5 | B5 | 25 | –
6 | B6 | 191 | –
7 | B7 | – | 10
8 | B8 | – | 723
9 | B9 | – | 75
10 | B10 | – | 438
11 | B11 | – | 203
